Patent publication US20060246440

Target: T1, GP-NRSF1-8 (UniProt Q13127)
T1 sequence: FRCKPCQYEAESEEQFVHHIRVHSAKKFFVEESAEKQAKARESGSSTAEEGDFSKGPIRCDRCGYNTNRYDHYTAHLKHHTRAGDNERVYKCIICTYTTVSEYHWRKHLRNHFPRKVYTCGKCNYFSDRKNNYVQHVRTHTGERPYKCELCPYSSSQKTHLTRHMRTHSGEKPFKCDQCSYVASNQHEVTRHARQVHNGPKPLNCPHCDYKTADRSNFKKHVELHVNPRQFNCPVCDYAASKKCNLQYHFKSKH
Assay: one_hybrid
Conditions: bacterial two-hybrid lacZ reporter; nearly 7-fold vs Gal11P only

For consensus NRSE (21 bp), the activity (fold activation) was 7.
